According to PMC10875981:

Target: FCγ receptor II (CD32), endogenous on K562 and U937 cells (human (endogenous in K562 and U937)) (UniProt P12318)
Chain of UniProt P12318 (P12318 34-317): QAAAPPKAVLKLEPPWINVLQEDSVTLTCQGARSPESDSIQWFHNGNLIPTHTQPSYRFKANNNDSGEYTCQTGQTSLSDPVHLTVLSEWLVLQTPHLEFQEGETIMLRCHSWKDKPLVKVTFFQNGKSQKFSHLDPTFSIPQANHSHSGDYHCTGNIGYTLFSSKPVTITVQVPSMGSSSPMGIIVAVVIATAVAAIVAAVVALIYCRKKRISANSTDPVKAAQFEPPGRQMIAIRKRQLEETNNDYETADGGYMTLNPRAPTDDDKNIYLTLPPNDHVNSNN

anti-Vα24Jα18 TCR mAb (6B11 mAb) (antibody)
CD107a^+ iNKT cells (treated with 6B11 mAb 50 ng/mL overnight, washed) after coculture with K562 cells, E/T 2:1, in the presence of the blocking anti-CD32 mAb (10 µg/mL): 1.8%
CD107a^+ iNKT cells (treated with 6B11 mAb 50 ng/mL overnight, washed) after coculture with K562 cells, E/T 2:1, with isotype mIgG1 (10 µg/mL): 52.8%
CD107a^+ iNKT cells (treated with 6B11 mAb 50 ng/mL overnight, washed) after coculture with U937 cells, E/T 2:1, in the presence of the anti-CD32 mAb: 15.6%
CD107a^+ iNKT cells (treated with 6B11 mAb 50 ng/mL overnight, washed) after coculture with U937 cells, E/T 2:1, with mIgG1 as a control: 38.3%
